Earlier results on one molecule are cited in PMC2652713, “Molecular Blocking of CD23 Supports Its Role in the Pathogenesis of Arthritis” (PLoS ONE, 2009).

This series relates to human macrophages and epithelial cells. The text has this:
Authors reported overexpression of membrane bound and sCD23 during acute juvenile or adult arthritis, with a clear pro-inflammatory property in this form. In the present study, we report similar observations in peripheral and synovial liquid monocytes/macrophages from adult arthritic patients (Figure 5).

B1: IL-10: a well-known immunoregulator and Th-1 inhibitor cytokine (protein, UniProt P22301 19-178, looked up)
Interleukin-10: SPGQGTQSENSCTHFPGNLPNMLRDLRDAFSRVKTFFQMKDQLDNLLLKESLLEDFKGYLGCQALSEMIQFYLEEVMPQAENQDPDIKAHVNSLGENLKTLRLRLRRCHRFLPCENKSKAVEQVKNAFNKLQEKGIYKAMSEFDIFINYIEAYMTMKIRN
On to B1, for which the “CD23-mediated TNF-α production” value is given as “decreased” and the “CD23-mediated nitric oxide production” value was “decreased”.
